The values below come from the nanobody polyreactivity screen of Harvey et al. (2022).

The nature of this data set: yeast display, Sf9 membrane polyspecificity reagent, FACS + sequencing; frameworks hold sequencing errors. An outline of the steps:
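Genes from sorted yeast were amplified by colony PCR, read by MiSeq 2 × 250 sequencing and filtered on CDR length. These cells carried a synthetic nanobody library in Saccharomyces cerevisiae BJ5465 and were sorted by FACS into low and high (top ~1%) gates on anti-HA and streptavidin fluorescence. Polyreactivity is labelled according to the gate of origin.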
In the case of “QVQLVESGGGLVQAGGSLRLSCAASGSTFAANAMGWYRQAPGKERELVAVIRRGGSTTYADSVKGRFTISRDNAKNTVYLQMNSLKPEDTAVYYCHARVTLGRPLFTYLVRYEYWGQGTQVTVSS”, the “polyreactivity (PSR sort gate)” value was “high polyreactivity”.
Consider “QVQLVESGGGLVQAGGSLRLSCAASGSTFADNAMGWDRQAPGKERELVAAISSDGSTNYADSVKGRFTISRDNAKNTVYLQMNSLKPEDTAVYYCNADGVYLGYPVVPPEGDYWGQGTQVTVSS”, for which the “polyreactivity (PSR sort gate)” value is “low polyreactivity”.
As to “QVQLVESGGGLVQAGGSLRLSCAASGSTFADNAMGWYRQAPGKERELVASISSSATSTYYADSVKGRFTISRDNAKNTVYLQMNSLKPEDSAVYYCSKGRPWYRGDFWGQGTQVTVSS”, the “polyreactivity (PSR sort gate)” value is given as “low polyreactivity”.
The same measure for “QVQLVESGGGLVQAGGSLRLSCAASGSTFAGNAMGWYRKAPGKERELVAAITFSGGRTDYADSVKGRFTISRDNAKNTVYLQMNSLNPEDTSVYYCAAPADDTVHYQNYYWGQGTQVTVSS”: “low polyreactivity”; for “QVQLVESGGGLVQAGGSLRLSCAASGSTFAGNAMGWYRQAPGKERELVAAIDSSTGSTYYADSVKGRFTISRDNAKNTVYLQMNSLKPEDTAVYYCAAGYYWQYTSSSAQYAYDYWGQGTQVTVSS”: “low polyreactivity”.
For the sequence “QVQLVESGGGLVQAGGSLRLSCAASGSTFAGNAMGWYRQAPGKERELVAAIDSSTGSTYYSDSVKGRFTISRDNAKNTVYLQMNSLKPEDTSVYYCNKTSVLVKLDYWGQGTQVTVSS”, the “polyreactivity (PSR sort gate)” value is “low polyreactivity”.
As to “QVQLVESGGGLVQAGGSLRLSCAASGSTFAGNAMGWYRQAPGKERELVAAISSGDRTYYADSVKGRFIISRDNAKNTVYLQMNSLKPEDTAVYYCAAGLYLQGPFDYWGQGTQVTVSS”, the “polyreactivity (PSR sort gate)” value is “low polyreactivity”.
For the sequence “QVQLVESGGGLVQAGGSLRLSCAASGSTFAGNAMGWYRQAPGTDRELVAAIDSSTGSTYYADSVKGRYTISRDNAKNTVYLHMNSLKPEDTAVYYCNKTSFLVTLDYWGQGTQVTVSS”, the “polyreactivity (PSR sort gate)” value is on record as “low polyreactivity”.
As for “QVQLVESGGGLVQAGGSLRLSCAASGSTFAGYAMGWYRQAPGKERELVAAISRGGRTYYADSVKGRFTISRDNAKNTVYLQMNSLKPEDTAVYYCAKYSAWYTYTYDYWGQGTQVTVSS”, the “polyreactivity (PSR sort gate)” value was “high polyreactivity”.
For the sequence “QVQLVESGGGLVQAGGSLRLSCAASGSTFAGYVMGWSRQAPGKERELVAAISRSGGSTYYADSVKGRFTISRDNAKNTVYLQMNSLKPEDTAVYYCNARYNTQRYRFLVQGDYWGQGTQVTVSS”, the “polyreactivity (PSR sort gate)” value is on record as “high polyreactivity”.
With “QVQLVESGGGLVQAGGSLRLSCAASGSTFAGYVMGWYRQAPGKERELVAGISYRGGRTYYADSVKGRFTISRDNAKNTVYLQMNSLKPEDTAVYYCAAENAVTGTDGEYYYWGQGTQVTVSS” the entry was “high polyreactivity”; with “QVQLVESGGGLVQAGGSLRLSCAASGSTFAGYVMGWYRQAPGKERELVASKSWSGGSTYYADSVKGRFTISRDNAKNTVNLQMNSLKPEETAVYYSNTRRYERTDSAYPDHDYPGYYWGQATQVTVSS”, “low polyreactivity”.
As for “QVQLVESGGGLVQAGGSLRLSCAASGSTFAHKAMGWYRQAPGKEGEFVAGISTNGGSTYYADSVKGRFTISRDNAKNTVYLQMNSLKPEDTAVYYCAAVNYYDQYGDYYWGQGTQVTVSS”, the “polyreactivity (PSR sort gate)” value is recorded as “low polyreactivity”.
With “QVQLVESGGGLVQAGGSLRLSCAASGSTFAIYAMGWDRGAPGKEREVVAAISWRTGSTYYADSVKGRFTISRDNAKNTVYLQMNSLKPEDTAVYYCAAEFWFFAGWAYEYWGHGTQVTVSS”, the “polyreactivity (PSR sort gate)” value is listed as “high polyreactivity”.
Turning to “QVQLVESGGGLVQAGGSLRLSCAASGSTFAIYAMGWYRKSPGKERELVASISGGSTNYADSVKGRFTISRDNAKNTVYLQMNSLKPEDTSVYYCAARGALHHWYRFDYWGQGTQVTLSS”, the “polyreactivity (PSR sort gate)” value is “low polyreactivity”.
The same measure for “QVQLVESGGGLVQAGGSLRLSCAASGSTFAIYPMGWYRPAPGKERELVAAITRSGGNTYYADSVKGRFTISRDNAKNTVYLQMNSLKPEDTAVYYCNAETYYWSAYAQYEYWGQGTQVTVSS”: “high polyreactivity”; for “QVQLVESGGGLVQAGGSLRLSCAASGSTFAIYPMGWYRQAPGKETALVAAITRSGGNTYYADSVKGRFTISRDNAKNTVYLQMNSLKPEDTAVYYCNAETYYWSAYAQYDYWGQGTQVTVSS”: “high polyreactivity”; for “QVQLVESGGGLVQAGGSLRLSCAASGSTFAKYAMGWYRQAPGKERELVAAISLSGGSTYYADSVKGRFTISRDNAKNTVYLQMNSLKPEDTAVYYCNTPPSRYVRYGIYRYDYWGQGTQVTVSS”: “high polyreactivity”.
As for “QVQLVESGGGLVQAGGSLRLSCAASGSTFALYPMGCYRQAPGKERELVAGITIDGSTNYADSVKGRFTISRDNAKNTVYLQMNSLKPEDTAVYYCNADSYKYPLLKYRSDYWGQGTQVTVSS”, the “polyreactivity (PSR sort gate)” value is reported as “low polyreactivity”.
Take “QVQLVESGGGLVQAGGSLRLSCAASGSTFANNDMGWYRQAPGIEREMVADIRSGGNTNYADSVKGRFTISRDNAKNTVVLQMHSVKPEDTAVYYCATDGYRIDVYQPDYRYDYWGQGTQVTVSS”: the “polyreactivity (PSR sort gate)” value is on record as “low polyreactivity”.
On to “QVQLVESGGGLVQAGGSLRLSCAASGSTFANYAMGWYRQAPGKERELVAAISRGGNTYYADSVKGRFTISRDNAKNTVYLQMNSLKPEDTAVYYCAARAPRFSRSSQPGDYWGQGTQVTVSS”, for which the “polyreactivity (PSR sort gate)” value is “high polyreactivity”.
Turning to “QVQLVESGGGLVQAGGSLRLSCAASGSTFANYAMGWYRQAPGKERELVAVISWGGGSTYYADSVKGRFTISRDNAKNTVYLQMNSLKPEDTAVYYCAAVYDEYQTTHEYDYWGQGTQVNVSS”, the “polyreactivity (PSR sort gate)” value is listed as “low polyreactivity”.
Consider “QVQLVESGGGLVQAGGSLRLSCAASGSTFAPNAMGWYRQAPGKERELVASIRRGGSTHYADSVKGRFTISRDNAKNTVYVQMNSLKPEDTAVYYCAKDVWRHYLNLYDYWGQGTQVTVSS”, for which the “polyreactivity (PSR sort gate)” value was “low polyreactivity”.
As to “QVQLVESGGGLVQAGGSLRLSCAASGSTFAPNTMGWYRQAPGKERELVARITTSDGSTTYADSVKGRFTISRDYAKNTVFFQMNILNPEDTAVYYCARDNTFCTWPSSLYDYWGQGTQVTVSS”, the “polyreactivity (PSR sort gate)” value was “low polyreactivity”.
Consider “QVQLVESGGGLVQAGGSLRLSCAASGSTFAPYAMGWYRQAPGKERELVAVITWSGGRTYYADSVKGRFTISRDNAKNTVYLQMNSLKPEDTAVYYCNDVPLLQGFNYWGQGTQGTVSS”, for which the “polyreactivity (PSR sort gate)” value is listed as “high polyreactivity”.
For the sequence “QVQLVESGGGLVQAGGSLRLSCAASGSTFAPYAMGWYRQAPGTERELVAALTTGGSTNYADYVKGRFTISRDNATNTVYLQMNSLKPEDTAVYYCNAEYGGGVDGTYKYYSEYDYWGQGTQVTVSS”, the “polyreactivity (PSR sort gate)” value was “low polyreactivity”.
With “QVQLVESGGGLVQAGGSLRLSCAASGSTFAQNVMGWYRQAPGKERELVAAITSSGSTNYADSVKGRFTISRDNAKNTVYLQMNILKPEDTAVFYCAKDVLAPYSRHDYWGQGTQVTVSS”, the “polyreactivity (PSR sort gate)” value is “low polyreactivity”.
With “QVQLVESGGGLVQAGGSLRLSCAASGSTFAQYAMGWYRQAPAKERELVAVISKRGGRTYYADSVKGRFTISRDNGKNTVYLQMNSLKPEDTAGYYCAADSGGPGYAMDYWGQGTQVTVSS”, the “polyreactivity (PSR sort gate)” value is “high polyreactivity”.
Regarding “QVQLVESGGGLVQAGGSLRLSCAASGSTFARYAMGWYRQAPGKERELVAAISITGSTYYADSVKGRFTISRDNAKNTVYLQMNSLNPEDTAVYYCNVKSKYRYGYWGQGTQVTVSS”, the “polyreactivity (PSR sort gate)” value is reported as “high polyreactivity”.
The same measure for “QVQLVESGGGLVQAGGSLRLSCAASGSTFASNAMGWYRQAPGKERELVAAISGSGGRTYYADSVKGRFTISRDNAKNTVYLQMNSLKQEDTAVYYCAADWVRRYNYWGQGTQVTVSS”: “high polyreactivity”.
